According to US12123876B2, “Antibody binding to HEG1 and use of the antibody for detection and treatment of mesothelioma” (Kanagawa Prefectural Hospital Organization, priority 2016, dated 2024):

Test system: SKM9-2 antibody
Test: Western blot reactivity of human HEG1 fragments expressed in ACC-MESO-1 with SKM9-2 antibody
Type: binding, mouse
Conditions: Western blot of cell lysate
Procedure: In this Example, the mesothelioma cell line ACC-MESO-1 was allowed to express a human HEG1 fragment with the endogenous HEG1 of ACC-MESO-1 knocked down, and the reactivity with the SKM9-2 antibody was examined. Subsequently, the reactivity with the antibody was tested for the epitope region through alanine scanning, and key amino acids for binding to the antibody were determined.
Gene transfer was performed with HEG1 siRNA (H9106) (SEQ ID NOs: 40, 41) and human HEG1 for the mesothelioma cell line ACC-MESO-1, and the reactivity of the SKM9-2 was examined through Western blot analysis. A full length protein (HEG1 full length) or a fragment (HEG1 3 kb, HEG1 2 kb, or HEG1 1 kb) of the human HEG1 was used. The full length human HEG1 protein, a protein having the amino acid sequence set forth in SEQ ID NO: 35, was obtained through inserting a base sequence set forth in SEQ ID NO: 34 into pFLAG-CMV1 (Sigma-Aldrich Japan K.K.) to obtain a plasmid, transforming the plasmid, and allowing the mesothelioma cell line to express the plasmid. Fragment HEG1 3 kb was obtained through inserting a fragment corresponding to a sequence from position 285, leucine, to position 1387, phenylalanine, of SEQ ID NO: 35 into pFLAG-CMV1 (Sigma-Aldrich Japan K.K.) in an in-frame manner, and allowing the mesothelioma cell line to express the resultant. HEG1 2 kb and HEG1 1 kb were obtained through allowing the mesothelioma cell line to express products similarly obtained from a fragment corresponding to a sequence from position 677, leucine, to position 1387, phenylalanine, of SEQ ID NO: 35 and a fragment corresponding to a sequence from position 992, valine, to position 1387, phenylalanine, of SEQ ID NO: 35, respectively. Each cell lysate was analyzed through Western blot with the SKM9-2 antibody.
Further, the region in exon 7 of HEG1 was analyzed in detail. The amino acid sequence of a part of exon 7 of HEG1 was connected to the N-terminal side of a protein obtained by connecting a GPI anchor signal to human SLURP1 (SEQ ID NO: 42; hereinafter referred to as “SLURPgpi”) to produce a fusion protein, and the reactivity of the SKM9-2 was examined through Western blot analysis with the fusion protein. A signal sequence (SEQ ID NO: 43) was added to the N-terminal of the fusion protein before expression.
Used fusion proteins of a partial sequence of exon 7 of HEG1 and SLURPgpi were as follows: • a fragment obtained by bonding a fragment from amino acid No. 783, aspartic acid, to amino acid No. 991, serine, to SLURPgpi (7.6); • a fragment obtained by bonding a fragment from amino acid No. 832, glutamine, to amino acid No. 991, serine, to SLURPgpi (7.7); • a fragment obtained by bonding a fragment from amino acid No. 886, glutamine, to amino acid No. 991, serine, to SLURPgpi (7.8); • a fragment obtained by bonding a fragment from amino acid No. 941, alanine, to amino acid No. 991, serine, to SLURPgpi (7.9); • a fragment obtained by bonding SEQ ID NO: 44 to SLURPgpi (7.61); • a fragment obtained by bonding SEQ ID NO: 45 to SLURPgpi (7.62); • a fragment obtained by bonding SEQ ID NO: 46 to SLURPgpi (7.63); • a fragment obtained by bonding SEQ ID NO: 47 to SLURPgpi (7.64); • a fragment obtained by bonding SEQ ID NO: 48 to SLURPgpi (7.623); • a fragment obtained by bonding SEQ ID NO: 49 to SLURPgpi (7.6231); • a fragment obtained by bonding SEQ ID NO: 50 to SLURPgpi (7.6232); • a fragment obtained by bonding SEQ ID NO: 51 to SLURPgpi (7.6241); and • a fragment obtained by bonding SEQ ID NO: 52 to SLURPgpi (7.6242).

B1: HEG1 full length: full length human HEG1 protein, SEQ ID NO: 35, expressed in mesothelioma cell line (protein, listed as Homo sapiens)
chain: MASPRASRWPPPLLLLLLPLLLLPPAAPGTRDPPPSPARRALSLAPLAGAGLELQLERRPEREPPPTPPRERRGPATPGPSYRAPEPGAATQRGPSGRAPRGGSADAAWKHWPESNTEAHVENITFYQNQEDFSTVSSKEGVMVQTSGKSHAASDAPENLTLLAETADARGRSGSSSRTNFTILPVGYSLEIATALTSQSGNLASESLHLPSSSSEFDERIAAFQTKSGTASEMGTERAMGLSEEWTVHSQEATTSAWSPSFLPALEMGELTTPSRKRNSSGPDLSWLHFYRTAASSPLLDLSSSSESTEKLNNSTGLQSSSVSQTKTMHVATVFTDGGPRTLRSLTVSLGPVSKTEGFPKDSRIATTSSSVLLSPSAVESRRNSRVTGNPGDEEFIEPSTENEFGLTSLRWQNDSPTFGEHQLASSSEVQNGSPMSQTETVSRSVAPMRGGEITAHWLLTNSTTSADVTGSSASYPEGVNASVLTQFSDSTVQSGGSHTALGDRSYSESSSTSSSESLNSSAPRGERSIAGISYGQVRGTAIEQRTSSDHTDHTYLSSTFTKGERALLSITDNSSSSDIVESSTSYIKISNSSHSEYSSFFHAQTERSNISSYDGEYAQPSTESPVLHTSNLPSYTPTINMPNTSVVLDTDAEFVSDSSSSSSSSSSSSSSSSSSSSGPPLPLPSVSQSHHLFSSILPSTRASVHLLKSTSDASTPWSSSPSPLPVSLTTSTSAPLSVSQTTLPQSSSTPVLPRARETPVTSFQTSTMTSFMTMLHSSQTADLKSQSTPHQEKVITESKSPSLVSLPTESTKAVTTNSPLPPSLTESSTEQTLPATSTNLAQMSPTFTTTILKTSQPLMTTPGTLSSTASLVTGPIAVQTTAGKQLSLTHPEILVPQISTEGGISTERNRVIVDATSGLIPLTSVPTSAKEMTTKLGVTAEYSPASRSLGTSPSPQTTVVSTAEDLAPKSATFAVQSSTQSPTTLSSSASVNSCAVNPCLHNGECVADNTSRGYHCRCPPSWQGDDCSVDVNECLSNPCPSTAMCNNTQGSFICKCPVGYQLEKGICNLVRTFVTEFKLKRTFLNTTVEKHSDLQEVENEITKTLNMCFSALPSYIRSTVHASRESNAVVISLQTTFSLASNVTLFDLADRMQKCVNSCKSSAEVCQLLGSQRRIFRAGSLCKRKSPECDKDTSICTDLDGVALCQCKSGYFQFNKMDHSCRACEDGYRLENETCMSCPFGLGGLNCGNPYQLITVVIAAAGGGLLLILGIALIVTCCRKNKNDISKLIFKSGDFQMSPYAEYPKNPRSQEWGREAIEMHENGSTKNLLQMTDVYYSPTSVRNPELERNGLYPAYTGLPGSRHSCIFPGQYNPSFISDESRRRDYF
- Binding to SKM9-2 antibody (positive/negative): positive
